{
  "source": "paper PMC11435032",
  "about": "“Development of Biolayer Interferometry (BLI)-Based Double-Stranded RNA Detection Method with Application in mRNA-Based Therapeutics and Vaccines”",
  "key": {"[1]": {"system": "B2 (FHV B2 1-73) (Flock House Virus)", "assay": "BLI", "conditions": "BLI (Octet RED384): 10 mM Tris pH 8.0, 100 mM NaCl, 0.1 mg/mL yeast tRNA, 0.1 mM EDTA, 0.05% Tween-20, temperature not stated"}, "J2 anti-dsRNA antibody": {"system": "J2 anti-dsRNA antibody", "assay": "BLI", "conditions": "kinetic, BLI (Octet RED384): 10 mM Tris pH 8.0, 100 mM NaCl, 0.1 mg/mL yeast tRNA, 0.1 mM EDTA, 0.05% Tween-20, temperature not stated"}, "K1 anti-dsRNA antibody": {"system": "K1 anti-dsRNA antibody", "assay": "BLI", "conditions": "BLI (Octet RED384): 10 mM Tris pH 8.0, 100 mM NaCl, 0.1 mg/mL yeast tRNA, 0.1 mM EDTA, 0.05% Tween-20, temperature not stated"}, "B2-Biotin (B2-Avi)": {"molecular_target": "B2-Biotin (B2-Avi) (Flock House Virus, UniProt P68831 1-73)", "sequence (P68831 1-73)": "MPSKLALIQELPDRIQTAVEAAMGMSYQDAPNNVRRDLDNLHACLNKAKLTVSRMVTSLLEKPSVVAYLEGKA", "assay": "BLI; avidity surface; lower asymptote than long dsRNA; BLI (Octet RED384): 10 mM Tris pH 8.0, 100 mM NaCl, 0.1 mg/mL yeast tRNA, 0.1 mM EDTA, 0.05% Tween-20; temperature not stated", "conditions": "protein: recombinant; tags: N-terminal 6xHis; C-terminal GS linker-AviTag, biotinylated by BirA in vivo; chain copies: 2; blunt"}, "[2]": {"conditions": "U replaced by N1-methylpseudouridine"}},
  "data": [
    {"molecule": "700 bp-5 moU", "values": [
      {"measurement": "Kd", "setting": "[1]; U replaced by 5-methoxyuridine", "result": 948, "unit": "nM"},
      {"measurement": "Kd", "setting": "J2 anti-dsRNA antibody; U replaced by 5-methoxyuridine", "result": 131, "unit": "nM"},
      {"measurement": "binding signal (fold weaker than 700 bp-U)", "setting": "K1 anti-dsRNA antibody; Kd value missing in material, U replaced by 5-methoxyuridine", "result": 4}
    ]},
    {"molecule": "700 bp-U", "values": [
      {"measurement": "Kd", "setting": "[1]", "result": 62, "unit": "nM"},
      {"measurement": "Kd", "setting": "J2 anti-dsRNA antibody", "result": 27, "unit": "nM"},
      {"measurement": "Kd", "setting": "K1 anti-dsRNA antibody", "result": 325, "unit": "nM"}
    ]},
    {"molecule": "700 bp-m1ψ", "values": [
      {"measurement": "Kd", "setting": "[1]; [2]", "result": 669, "unit": "nM"},
      {"measurement": "Kd", "setting": "J2 anti-dsRNA antibody; [2]", "result": 56, "unit": "nM"}
    ]},
    {"molecule": "700 bp-ψ", "values": [
      {"measurement": "Kd", "setting": "[1]; U replaced by pseudouridine", "result": 405, "unit": "nM"},
      {"measurement": "Kd", "setting": "J2 anti-dsRNA antibody; U replaced by pseudouridine", "result": 32, "unit": "nM"}
    ]},
    {"molecule": "25 bp-U dsRNA (dsRNA) RNA 1: CACGUACCGUUCUAGCGGGCUCUCG RNA 2: CGAGAGCCCGCUAGAACGGUACGUG", "values": [
      {"measurement": "binding result", "setting": "B2-Biotin (B2-Avi)", "result": "binds"}
    ]},
    {"molecule": "25 bp-m1ψ dsRNA (dsRNA, U replaced by N1-methylpseudouridine) RNA 1: CACGUACCGUUCUAGCGGGCUCUCG RNA 2: CGAGAGCCCGCUAGAACGGUACGUG", "values": [
      {"measurement": "binding result", "setting": "B2-Biotin (B2-Avi)", "result": "binds"}
    ]}
  ]
}
